In this data set the test system is function of cardiovascular system in conscious Bama miniature pigs. Briefly: Safety pharmacology, effect on function of cardiovascular system. Type of data set: in vivo. As for the experimental part:
8 Bama miniature pigs (4 pigs/sex, common grade) were used, and a cross-over design was adopted. […] Data in various indexes including ECG, blood pressure, and temperature in the animals from at least 2 hours before administration to at least 48 hours after administration were collected, and statistical analysis and evaluation of various index data of ECG, blood pressure, and temperature at a time point within 1.5 hours before administration, and at time points of 0.25 hours(±5 min), 0.5 hours(±5 min), 1 hour(±10 min), 1.5 hours(±10 min), 2 hours(±10 min), 3 hours(±15 min), 4 hours(±20 min), 6 hours(±30 min), 8 hours(±45 min), 12 hours(±45 min), 24 hours(±1 h), 48 hours(±1 h) after administration.

The mark [1] stands for this setting: 3 mg/kg intravenous, vs adjuvant control.

B1: recombinant protein as shown in SEQ ID NO: 14: recombinant protein: spacer peptide EAEA (SEQ ID NO: 8) at N-terminus of rLZ-8 mutant (SEQ ID NO: 13) (protein)
chain: EAEAMSDTALIFRLAWDVKKLSFDYTPNWGRGNPNNFIDTVTFPKVLTDKAYTYRVAVSGRNLGVKPSYAVESKGSQKVNFLEYNSGYGIADTNTIQVFVVDPDTNNDFIIAQWN
modifications: EAEA-rLZ-8 mutant (D70K)
Turning to B1, the “other ECG indexes (QRS time limit, QRS voltage, ST segment voltage, Tp-e interval, P wave width), blood pressure indexes and temperature” value (0.5 mg/kg and 3 mg/kg intravenous) is given as “No statistical difference (P>0.05) was found”. Moreover, under setting [1], the QTcB interval result is recorded as “shortened during 2 h to 4 h”; the “RR interval, PR interval, and QT interval” value is recorded as “heat rate-associated change occurred”; the T wave voltage result is given as “increased during 0.5 h to 6 h”; the heart rate entry is on record as “increased during 0.5 h to 6 h after administration”. The “effect on the cardiovascular function and temperature” value (intravenous infusion within the range of pharmacodynamic dose) was “did not have significant effect on the cardiovascular function and temperature”.

(Values after patent US20240424071A1, “NOVEL MUTANT OF RECOMBINANT GANODERMA LUCIDUM IMMUNOMODULATORY PROTEIN AND USE THEREOF” (CHANGCHUN INTELLICROWN PHARMACEUTICAL CO., LTD., priority 2021, published 2024).)
